Results: article PMC10232371, “Enhanced rare-earth separation with a metal-sensitive lanmodulin dimer” (Nature, 2023)

Tests used:
[1] = molecular target: Lanmodulin from Hansschlegelia quercus (Hans-LanM), wild type (Hansschlegelia quercus); experiment: SEC; analytical size-exclusion chromatography of Hans-LanM in the presence of three equivalents of La(III)
[2] = molecular target: Lanmodulin from Hansschlegelia quercus (Hans-LanM), wild type (Hansschlegelia quercus); experiment: ITC; dilutive additions of 300 uM apo protein into matched buffer (30 mM MOPS, 100 mM KCl, pH 7.0), 30 °C; Dimer Dissociation model; dimer to monomers
[3] = molecular target: Lanmodulin from Hansschlegelia quercus (Hans-LanM), wild type (Hansschlegelia quercus); experiment: SEC-MALS; Hans-LanM pre-incubated with 3 equiv. La(III), Nd(III) or Gd(III); 1.2-1.5 mg/mL loaded; buffer B (30 mM MOPS, 100 mM KCl, 5% glycerol, pH 7.0)
[4] = molecular target: Lanmodulin from Hansschlegelia quercus (Hans-LanM), wild type (Hansschlegelia quercus); experiment: ITC; dilutive additions of 300 uM protein with 2 equivalents of Dy(III) into matched buffer (30 mM MOPS, 100 mM KCl, pH 7.0), 30 °C; Dimer Dissociation model; dimer to monomers
[5] = molecular target: Lanmodulin from Hansschlegelia quercus (Hans-LanM), wild type (Hansschlegelia quercus); experiment: ITC; dilutive additions of 150 uM or 540 uM protein with 2 equivalents of La(III) into matched buffer (30 mM MOPS, 100 mM KCl, pH 7.0), 30 °C; no change of heats seen, only an upper limit; dimer to monomers
[6] = molecular target: the molecule itself; experiment: SEC; analytical Superdex 75 column (24 mL); protein metalated with 3.0 equiv. La(III)
[7] = molecular target: the molecule itself; experiment: SEC; analytical Superdex 75 column (24 mL); apo protein (590 uM, 100 uL) metalated with 3.0 equiv. Nd(III)
[8] = molecular target: the molecule itself; experiment: SAXS; La(III)-bound protein from SEC-MALS fractions, 1.5 mg/mL; 30 mM MOPS, 100 mM KCl, 5% glycerol, pH 7.0, 22 C; Porod volume, OLIGOMER and CRYSOL analyses
[9] = molecular target: the molecule itself; experiment: SAXS; Nd(III)-bound protein from SEC-MALS fractions, 1.4 mg/mL; 30 mM MOPS, 100 mM KCl, 5% glycerol, pH 7.0, 22 C; Porod volume, OLIGOMER and CRYSOL analyses

In the case of “Lanmodulin from Hansschlegelia quercus (Hans-LanM), wild type (natural protein)”, the stoichiometry N [1] is reported as 2, the Kd [2] is reported as 117 µM and the stoichiometry N [3] is reported as 2. It also gave a Kd [4] of 60 µM and a Kd [5] of under 0.4 µM.

B1: Hansschlegelia quercus lanmodulin (Hans-LanM), residues A24-K133 (natural protein)
chain: ASGADALKALNKDNDDSLEIAEVIHAGATTFTAINPDGDTTLESGETKGRLTEKDWARANKDGDQTLEMDEWLKILRTRFKRADANKDGKLTAAELDSKAGQGVLVMIMK
notes: lanmodulin (LanM) of Hansschlegelia quercus without its native 23-residue signal peptide; expressed with an N-terminal Met that is cleaved, so the first residue is A24; Metal-free (apo) or loaded with rare-earth(III) ions as named in each assay; expressed from pET-29b(+); also called wild-type Hans-LanM; source: E. coli, purified (SEC, dialysed against Chelex 100)
With B1 the “stoichiometry N” value [6] was 2, the “stoichiometry N” value [7] was 2 and the “stoichiometry N” value [8] was 2. The “stoichiometry N” value [9] was 2.
